Reference: paper PMC4772074 (Biochemistry, 2015)

Biological target: the molecule itself
Assay: SEC-MALS

B1: E. coli CheA (enzyme)
chain: MSMDISDFYQTFFDEADELLADMEQHLLVLQPEAPDAEQLNAIFRAAHSIKGGAGTFGFSVLQETTHLMENLLDEARRGEMQLNTDIINLFLETKDIMQEQLDAYKQSQEPDAASFDYICQALRQLALEAKGETPSAVTRLSVVAKSEPQDEQSRSQSPRRIILSRLKAGEVDLLEEELGHLTTLTDVVKGADSLSAILPGDIAEDDITAVLCFVIEADQITFETVEVSPKISTPPVLKLAAEQAPTGRVEREKTTRSNESTSIRVAVEKVDQLINLVGELVITQSMLAQRSSELDPVNHGDLITSMGQLQRNARDLQESVMSIRMMPMEYVFSRYPRLVRDLAGKLGKQVELTLVGSSTELDKSLIERIIDPLTHLVRNSLDHGIELPEKRLAAGKNSVGNLILSAEHQGGNICIEVTDDGAGLNRERILAKAASQGLTVSENMSDDEVAMLIFAPGFSTAEQVTDVSGRGVGMDVVKRNIQKMGGHVEIQSKQGTGTTIRILLPLTLAILDGMSVRVADEVFILPLNAVMESLQPREADLHPLAGGERVLEVRGEYLPIVELWKVFNVAGAKTEATQGIVVILQSGGRRYALLVDQLIGQHQVVVKNLESNYRKVPGISAATILGDGSVALIVDVSALQAINREQRMANTAA
- stoichiometry N: 2
